Test results as given in US20200138870A1, “RECREATION OF PANCREATIC NICHE ALLOWS FOR NOVEL METHODS FOR HUMAN, MATURE BETA DERIVATION FROM PLURIPOTENT STEM CELLS” (Baylor College of Medicine, priority 2016, published 2020).

B1: PDPN: podoplanin, a mucin-type transmembrane glycoprotein (protein, UniProt Q86YL7 23-162, looked up)
Podoplanin: ASTGQPEDDTETTGLEGGVAMPGAEDDVVTPGTSEDRYKSGLTTLVATSVNSVTGIRIEDLPTSESTVHAQEQSPSATASNVATSHSTEKVDGDTQTTVEKDGLSTVTLVGIIVGVLLAIGFIGAIIVVVMRKMSGRYSP
B2: Endocan: niche-derived secreted factor (R&D), 1 or 5 ng/ml (protein, UniProt Q9NQ30 20-184, looked up)
Endothelial cell-specific …: WSNNYAVDCPQHCDSSECKSSPRCKRTVLDDCGCCRVCAAGRGETCYRTVSGMDGMKCGPGLRCQPSNGEDPFGEEFGICKDCPYGTFGMDCRETCNCQSGICDRGTGKCLKFPFFQYSVTKSSNRFVSLTEHDMASGDGNIVREEVVKENAAGSPVMRKWLNPR
B3: SERPINF1: niche-derived secreted factor (R&D), 500 ng/ml or 1 μg/ml (protein, UniProt P36955 20-418, looked up)
Pigment epithelium-derived …: QNPASPPEEGSPDPDSTGALVEEEDPFFKVPVNKLAAAVSNFGYDLYRVRSSTSPTTNVLLSPLSVATALSALSLGAEQRTESIIHRALYYDLISSPDIHGTYKELLDTVTAPQKNLKSASRIVFEKKLRIKSSFVAPLEKSYGTRPRVLTGNPRLDLQEINNWVQAQMKGKLARSTKEIPDEISILLLGVAHFKGQWVTKFDSRKTSLEDFYLDEERTVRVPMMSDPKAVLRYGLDSDLSCKIAQLPLTGSMSIIFFLPLKVTQNLTLIEESLTSEFIHDIDRELKTVQAVLTVPKLKLSYEGEVTKSLQEMKLQSLFDSPDFSKITGKPIKLTQVEHRAGFEWNEDGAGTTPSPGLQPAHLTFPLDYHLNQPFIFVLRDTDTGALLFIGKILDPRGP
B4: Gremlin1: a BMP antagonist upregulated in Wk17.5h and 20.1 M-E primary cells (protein, UniProt O60565 25-184, looked up)
Gremlin-1: KKKGSQGAIPPPDKAQHNDSEQTQSPQQPGSRNRGRGQGRGTAMPGEEVLESSQEALHVTERKYLKRDWCKTQPLKQTIHEEGCNSRTIINRFCYGQCNSFYIPRHIRKEEGSFQSCSFCKPKKFTTMMVTLNCPELQPPTKKKRVTRVKQCRCISIDLD
B5: WNT5B: a WNT5A paralog (protein, UniProt Q9H1J7 18-359, looked up)
Protein Wnt-5b: QLLTDANSWWSLALNPVQRPEMFIIGAQPVCSQLPGLSPGQRKLCQLYQEHMAYIGEGAKTGIKECQHQFRQRRWNCSTADNASVFGRVMQIGSRETAFTHAVSAAGVVNAISRACREGELSTCGCSRTARPKDLPRDWLWGGCGDNVEYGYRFAKEFVDAREREKNFAKGSEEQGRVLMNLQNNEAGRRAVYKMADVACKCHGVSGSCSLKTCWLQLAEFRKVGDRLKEKYDSAAAMRVTRKGRLELVNSRFTQPTPEDLVYVDPSPDYCLRNESTGSLGTQGRLCNKTSEGMDGCELMCCGRGYNQFKSVQVERCHCKFHWCCFVRCKKCTEIVDQYICK

System: hESC-derived EPs
Experiment: Growth factor treatment of hESC-derived EPs for 3 days, immunofluorescence quantification of marker-positive cells
Assay type: cell-based, human
Conditions: for increase in number of ISL1+ cells: high concentration treatment; for INS+ cell numbers (in words): two concentrations
Method: hESC, ISL1-EGFP Hues8 and H1, were maintained under a feeder-free system on Geltrex (Invitrogen) in TeSR-E8 media (Stemcell Technologies). Cells were passaged at 70-80% confluence using TrypLE (Invitrogen). After dissociation, cells were seeded in TeSR-E8 media+10 μM Y-27632 for 24h. Differentiation was started when cells were 90% confluent. The following media and growth factors/small molecules (see also Table 3) were used: Day1: MCDB-131 media with 0.1% BSA+10 mM glucose+ActivinA and CHIR99021. Day2-3: MCDB-131 media+0.1% BSA+10 mM glucose+ActivinA. Day4-5: MCDB-131+0.1% BSA, 10 mM glucose, VitC+KGF. Day6-9: MCDB-131 2% BSA+5.5 mM glucose+Vit.C+ITS (Invitrogen)+ActivinA+KGF+RA+SANT-1+Noggin. Day10-12: MCDB-131+2% BSA+5.5 mM glucose+VitC+ITS+SANT-1+Noggin+PdBU. Day13-15: MCDB-131+2% BSA+5.5 mM glucose+VitC+ITS+Noggin+AlK5i. EPs were dissociated and seeded as 25,000 cells/well on Geltrex-coated 96-well plates in DMEM media (Invitrogen) with B27 Supplement (Thermo Fisher Scientific), later called B27 media, supplemented with 10 µM Y-27632 for 24h. Growth factors (Table 3) were added to B27 media, at two concentrations, and tested on EPs for 3 days. After 3 days, cells were PBS washed, fixed with 4% PFA/PBS for 20 min at room temperature (RT), washed twice with PBS and stained.
Cells were incubated with 5% donkey serum (Jackson ImmunoResearch Laboratories) in PBST (PBS+0.1% Triton-X) for 30 min to avoid nonspecific binding of the antibody and to permeabilize the cells. Primary antibodies, diluted in 5% donkey serum in PBST, were then added and incubated at 4° C. overnight with shaking. After primary antibody incubation, cells were washed 3 times with PBST and secondary antibodies conjugated with Alexa-Fluor Dyes (Jackson ImmunoResearch Laboratories) and diluted in 5% donkey serum in PBST were added to the cells for 30 min at RT. Then, cells were thrice washed with PBST and nuclei were stained with Dapi (Roche Diagnostics). For imaging, Leica DMI6000 or confocal Leica TCS SPE was used. Images were initially processed by LAS X software and then further analyzed and quantified using ImageJ software (NIH, W Rasband, http://rsb.info.nih.gov/ij) using cell counter plug-in. Typically, at least 5 randomly selected images were counted per condition.

[1] = 200 ng/ml Gremlin1, 3 days, vs untreated

Molecule	effect on the number of CHGA+ and INS+ cells (in words) (3 days treatment of EPs)	increase in number of ISL1+ cells (3 days) [fold]	numbers of ISL1-eGFP, CHGA+, INS+ and C-peptide+ cells over untreated controls (in words) (3 days treatment of EPs)	also measured
HGF: growth factor (R&D), 50 or 100 ng/ml	little or no effect	~2	–	–
IGF: growth factor (R&D), 10 or 50 ng/ml	little or no effect	~2	–	–
THBS2: growth factor (R&D), 5 or 1 μg/ml	little or no effect	~2	–	–
B1	–	–	increased	increase in number of CHGA+ cells (high concentration, 3 days): 3 fold; increase in number of INS+ cells (high concentration, 3 days): 3 fold
B2	–	–	increased	number of CHGA+ cells (in words) (3 days treatment of EPs): significant increase; INS+ cell numbers (in words) (3 days treatment of EPs): moderate effect
B3	–	–	increased	–
B4	–	–	–	increase in CHGA+ cell numbers [1]: 5 fold; increase in INS+ cell numbers [1]: 5 fold; decrease in the number of GCG+ cells (3-day EP treatment, vs untreated control): 3 fold
B5	–	–	–	INS+ cell numbers (in words) (3 days treatment of EPs): increased INS+ cell numbers in a dose-dependent manner
